Columns and labels:
Format in all cases: biochemical
[1] = HTP-analysis of supernatants pretreated with base (MUGal hydrolysis); settings: challenge at pH 7.1; activity of the variant/activity of WT GLA (SEQ ID NO: 5); yeast supernatant
In short: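 Fluorescence of released 4-MU (Ex 355 nm, Em 448 nm) after carbonate quench reports MUGal hydrolysis by GLA variants secreted from INVSc1 yeast. Before the acidic (pH 4.3-4.8) 30-180 min reaction at 37° C, supernatants had been pre-incubated at pH 7.0-9.7 for 1-18 h at 37° C.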

[2] = HTP-analysis of supernatants pretreated with acid (MUGal hydrolysis); settings: challenge at pH 4.2; activity of the variant/activity of WT GLA (SEQ ID NO: 5); yeast supernatant
In short: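 MUGal hydrolysis was tracked by fluorescence (Ex 355 nm, Em 448 nm) after a 30-180 min reaction at 37° C. in pH 4.8 McIlvaine/citrate buffer, stopped with 1 M sodium carbonate. Beforehand, yeast (INVSc1) culture supernatants carrying GLA variants were held 1-3 h at 37° C. in acidic McIlvaine buffer, pH 3.3-4.3.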

[3] = HTP-analysis of yeast culture supernatants, no challenge (MUGal hydrolysis); settings: activity of the variant/activity of WT GLA (SEQ ID NO: 5), yeast supernatant
In short: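 Activity read as 4-methylumbelliferyl α-D-galactopyranoside hydrolysis: fluorescence (355/448 nm) after sodium carbonate stop, following 30-180 min at 37° C with 2 mM MUGal stock at pH 4.6–4.8. Enzyme source is unchallenged culture supernatant of INVSc1 yeast expressing GLA variants, grown 66-84 h at 30° C.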

Molecule	Relative Activity of GLA Variants After Challenge at pH 7.1 [1]	Relative Activity of GLA Variants After Challenge at pH 4.2 [2]	Relative Activity of GLA Variants After No Challenge (NC) [3]
76 (protein, Synthetic Polypeptide sequence of Variant No. 76) LDNGLARTPTMGWLHWERFMCNLDCQEEPDSCISEKLFMEMAELMVSEGWKDAGYEYLCIDDCWMAPQRDSEGRLQADPQRFPHGIRQLANYVHSKGLKLGIYADVGNKTCAGFPGSFGYYDIDAQTFADWGVDLLKFDGCYCDSLENLADGYKHMSLALNRTGRSIVYSCEWPLYMWPFQKPNYTEIRQYCNHWRNFADIDDSWRSIKSILDWTSFNQERIVDVAGPGGWNDPDMLVIGNFGLSWNQQVTQMALWAIMAAPLFMSNDLRHISPQAKALLQDKDVIAINQDPLGKQGYQLRQGDNFEVWERPLSGLAWAVAMINRQEIGGPRSYTIAVASLGKGVACNPACFITQLLPVKRKLGFYEWTSRLRSHINPTGTVLLQLENTMQMSLKDLL	++ (++ = >1.5 to 2.5 relative activity over WT GLA (SEQ ID NO: 5))	+++ (+++ = >2.5 relative activity over WT GLA (SEQ ID NO: 5))	+ (+ = 0.5 to 1.5 relative activity over WT GLA (SEQ ID NO: 5))
82 (protein, Synthetic Polypeptide sequence of Variant No. 82 of mature Human GLA) LDNGLARTPTMGWLHWERFMCNLDCQEEPDSCISEDLFMEMAELMVSEGWKDAGYEYLCIDDCWMAPQRDSEGRLQADPQRFPHGIRQLANYVHSKGLKLGIYADVGNKTCAGFPGSFGYYDIDAQTFADWGVDLLKFDGCYCDSLENLADGYKHMSLALNRTGRSIVYSCEWPLYMWPFQKPNYTEIRQYCNHWRNFADIDDSWKSIKSILDWTSFNQERIVDVAGPGGWNDPDMLVIGNFGLSWNQQVTQMALWAIMAAPLFMSNDLRHISPQAKALLQDKDVIAINQDPLGKQGYQLRQGDNFEVWERPLSGLAWAVAMINRQEIGGPRSYTIAVASLGKGVACNPACFITQLLPVKRKLGFYEWTSRLRSHINPTGTVLLQLENTMQMSKDLLL	+ (+ = 0.5 to 1.5 relative activity over WT GLA (SEQ ID NO: 5))	+ (+ = 0.5 to 1.5 relative activity over WT GLA (SEQ ID NO: 5))	+ (+ = 0.5 to 1.5 relative activity over WT GLA (SEQ ID NO: 5))
79 (protein, Synthetic Polypeptide sequence of Variant No. 79 of mature Human GLA) LDNGLARTPTMGWLHWERFMCNLDCQEEPDSCISEKLFMEMAELMVSEGWKDAGYEYLCIDDCWMAPQRDSEGRLQADPQRFPHGIRQLANYVHSKGLKLGIYADVGNKTCAGFPGSFGYYDIDAQTFADWGVDLLKFDGCYCDSLENLADGYKHMSLALNRTGRSIVYSCEWPLYMWPFQKPNYTEIRQYCNHWRNFADIDDSWKSIKSILDWTSFNQERIVDVAGPGGWNDPDMLVIGNFGLSWNQQVTQMALWAIMAAPLFMSNDLRHISPQAKALLQDKDVIAINQDPLGKQGYQLRQGDNFEVWERPLSGLAWAVAMINRQEIGGPRSYTIAVASLGGGVACNPACFITQLLPVKRKLGFYEWTSRLRSHINPTGTVLLQLENTMQMSKDLLL	++ (++ = >1.5 to 2.5 relative activity over WT GLA (SEQ ID NO: 5))	++ (++ = >1.5 to 2.5 relative activity over WT GLA (SEQ ID NO: 5))	++ (++ = >1.5 to 2.5 relative activity over WT GLA (SEQ ID NO: 5))
83 (protein, Synthetic Polypeptide sequence of Variant No. 83 of mature Human GLA) LDNGLARTPTMGWLHWERFMCNLDCQEEPDSCISEELFMEMAELMVSEGWKDAGYEYLCIDDCWMAPQRDSEGRLQADPQRFPHGIRQLANYVHSKGLKLGIYADVGNKTCAGFPGSFGYYDIDAQTFADWGVDLLKFDGCYCDSLENLADGYKHMSLALNRTGRSIVYSCEWPLYMWPFQKPNYTEIRQYCNHWRNFADIDDSWKSIKSILDWTSFNQERIVDVAGPGGWNDPDMLVIGNFGLSWNQQVTQMALWAIMAAPLFMSNDLRHISPQAKALLQDKDVIAINQDPLGKQGYQLRQGDNFEVWERPLSGLAWAVAMINRQEIGGPRSYTIAVASLGKGVACNPACFITQLLPVKRKLGFYEWTSRLRSHINPTGTVLLQLENTMQMSKDLLL	+ (+ = 0.5 to 1.5 relative activity over WT GLA (SEQ ID NO: 5))	++ (++ = >1.5 to 2.5 relative activity over WT GLA (SEQ ID NO: 5))	+ (+ = 0.5 to 1.5 relative activity over WT GLA (SEQ ID NO: 5))
80 (protein, Synthetic Polypeptide sequence of Variant No. 80 of mature Human GLA) LDNGLARTPTMGWLHWERFMCNLDCQEEPDSCISEKLFMEMAELMVSEGWKDAGYEYLCIDDCWMAPQRDSEGRLQADPQRFPHGIRQLANYVHSKGLKLGIYADVGNKTCAGFPGSFGYYDIDAQTFADWGVDLLKFDGCYCDSLENLADGYKHMSLALNRTGRSIVYSCEWPLYMWPFQKPNYTEIRQYCNHWRNFADIDDSWKSIKSILDWTSFNQERIVDVAGPGGWNDPDMLVIGNFGLSWNQQVTQMALWAIMAAPLFMSNDLRHISPQAKALLQDKDVIAINQDPLGKQGYQLRQGDNFEVWERPLSGLAWAVAMINRQEIGGPRSYTIAVASLGKGVACNPACFITQLLPVKRQLGFYEWTSRLRSHINPTGTVLLQLENTMQMSKDLLL	+ (+ = 0.5 to 1.5 relative activity over WT GLA (SEQ ID NO: 5))	+ (+ = 0.5 to 1.5 relative activity over WT GLA (SEQ ID NO: 5))	+ (+ = 0.5 to 1.5 relative activity over WT GLA (SEQ ID NO: 5))
78 (protein, Synthetic Polypeptide sequence of Variant No. 78 of mature Human GLA) LDNGLARTPTMGWLHWERFMCNLDCQEEPDSCISEKLFMEMAELMVSEGWKDAGYEYLCIDDCWMAPQRDSEGRLQADPQRFPHGIRQLANYVHSKGLKLGIYADVGNKTCAGFPGSFGYYDIDAQTFADWGVDLLKFDGCYCDSLENLADGYKHMSLALNRTGRSIVYSCEWPLYMWPFQKPNYTEIRQYCNHWRNFADIDDSWKSIKSILDWTSFNQERIVDVAGPGGWNDPDMLVIGNFGLSWNQQVTQMALWAIMAAPLFMSNDLRHISPQAKALLQDKDVIAINQDPLGKQGYQLRQGDNFEVWERPLSGLAWAVAMINRQEIGGPRSYTIAVASLGDGVACNPACFITQLLPVKRKLGFYEWTSRLRSHINPTGTVLLQLENTMQMSKDLLL	++ (++ = >1.5 to 2.5 relative activity over WT GLA (SEQ ID NO: 5))	++ (++ = >1.5 to 2.5 relative activity over WT GLA (SEQ ID NO: 5))	++ (++ = >1.5 to 2.5 relative activity over WT GLA (SEQ ID NO: 5))
81 (protein, Synthetic Polypeptide sequence of Variant No. 81 of mature Human GLA) LDNGLARTPTMGWLHWERFMCNLDCQEEPDSCISEKLFMEMAELMVSEGWKDAGYEYLCIDDCWMAPQRDSEGRLQADPQRFPHGIRQLANYVHSKGLKLGIYADVGNKTCAGFPGSFGYYDIDAQTFADWGVDLLKFDGCYCDSLENLADGYKHMSLALNRTGRSIVYSCEWPLYMWPFQKPNYTEIRQYCNHWRNFADIDDSWKSIKSILDWTSFNQERIVDVAGPGGWNDPDMLVIGNFGLSWNQQVTQMALWAIMAAPLFMSNDLRHISPQAKALLQDKDVIAINQDPLGKQGYQLRQGDNFEVWERPLSGLAWAVAMINRQEIGGPRSYTIAVASLGKGVACNPACFITQLLPVKRRLGFYEWTSRLRSHINPTGTVLLQLENTMQMSKDLLL	+ (+ = 0.5 to 1.5 relative activity over WT GLA (SEQ ID NO: 5))	+ (+ = 0.5 to 1.5 relative activity over WT GLA (SEQ ID NO: 5))	+ (+ = 0.5 to 1.5 relative activity over WT GLA (SEQ ID NO: 5))
77 (protein, Synthetic Polypeptide sequence of Variant No. 77 of mature Human GLA) LDNGLARTPTMGWLHWERFMCNLDCQEEPDSCISEKLFMEMAELMVSEGWKDAGYEYLCIDDCWMAPQRDSEGRLQADPQRFPHGIRQLANYVHSKGLKLGIYADVGNKTCAGFPGSFGYYDIDAQTFADWGVDLLKFDGCYCDSLENLADGYKHMSLALNRTGRSIVYSCEWPLYMWPFQKPNYTEIRQYCNHWRNFADIDDSWTSIKSILDWTSFNQERIVDVAGPGGWNDPDMLVIGNFGLSWNQQVTQMALWAIMAAPLFMSNDLRHISPQAKALLQDKDVIAINQDPLGKQGYQLRQGDNFEVWERPLSGLAWAVAMINRQEIGGPRSYTIAVASLGKGVACNPACFITQLLPSKRKLGFYEWTSRLRSHINPTGTVLLQLENTMQMSKDLLL	+ (+ = 0.5 to 1.5 relative activity over WT GLA (SEQ ID NO: 5))	++ (++ = >1.5 to 2.5 relative activity over WT GLA (SEQ ID NO: 5))	+ (+ = 0.5 to 1.5 relative activity over WT GLA (SEQ ID NO: 5))

Source: patent US11278600B2, “Human alpha-galactosidase variants” (Codexis, Inc., priority 2014, dated 2022)
